Results: publication PMC9918532

Columns and labels:
[1] = nuclear/cytosolic fractionation and immunofluorescence
[2] = HA-Ub in-cell ubiquitination, anti-HA and anti-K48 blot; settings: glycan lost; control: untreated / control shRNA
[3] = immunoblot of endogenous YTHDF2, hepatoma cells; settings: control: untreated / control shRNA
[4] = CHX chase, HepG2-HBV1.3-shYTHDF2; settings: glycan gained; control: untreated Flag-YTHDF2-WT
[5] = actinomycin D chase, RT-qPCR, HepG2-HBV1.3-shYTHDF2; settings: glycan lost; control: YTHDF2-WT
[6] = HA-Ub in-cell ubiquitination, Flag IP, MG132; settings: glycan lost; control: YTHDF2-WT
[7] = in vitro ubiquitination with His-OGT and UDP-GlcNAc; settings: glycan lost; control: YTHDF2-WT
[8] = CHX chase, HepG2-HBV1.3-shYTHDF2, anti-Flag blot; settings: glycan lost; control: YTHDF2-WT
[9] = CHX chase, Flag-YTHDF2 in HepG2-HBV1.3; settings: glycan lost; control: control shRNA
[10] = CHX chase, endogenous YTHDF2 in HepAD38; settings: glycan lost; control: control shRNA

B1: YTHDF2: OSMI-1 (protein)
parent chain: MSASSLLEQRPKGQGNKVQNGSVHQKDGLNDDDFEPYLSPQARPNNAYTAMSDSYLPSYYSPSIGFSYSLGEAAWSTGGDTAMPYLTSYGQLSNGEPHFLPDAMFGQPGALGSTPFLGQHGFNFFPSGIDFSAWGNNSSQGQSTQSSGYSSNYAYAPSSLGGAMIDGQSAFANETLNKAPGMNTIDQGMAALKLGSTEVASNVPKVVGSAVGSGSITSNIVASNSLPPATIAPPKPASWADIASKPAKQQPKLKTKNGIAGSSLPPPPIKHNMDIGTWDNKGPVAKAPSQALVQNIGQPTQGSPQPVGQQANNSPPVAQASVGQQTQPLPPPPPQPAQLSVQQQAAQPTRWVAPRNRGSGFGHNGVDGNGVGQSQAGSGSTPSEPHPVLEKLRSINNYNPKDFDWNLKHGRVFIIKSYSEDDIHRSIKYNIWCSTEHGNKRLDAAYRSMNGKGPVYLLFSVNGSGHFCGVAEMKSAVDYNTCAGVWSQDKWKGRFDVRWIFVKDVPNSQLRHIRLENNENKPVTNSRDTQEVPLEKAKQVLKIIASYKHTTSIFDDFSHYEKRQEEEESVKKERQGRGK
Q: With B1 as the protein, how does the localisation_or_trafficking ([1]; glycan lost, control: untreated) read?
A: Its localisation_or_trafficking is “no change”.

Q: What about the “other: ubiquitination” value [2] of the same protein?
A: The value was “increases”.

Q: And the expression_or_secretion ([3]; glycan lost)?
A: Its expression_or_secretion is “decreases”.

B2: YTHDF2: OGT knockdown (protein)
parent chain: MSASSLLEQRPKGQGNKVQNGSVHQKDGLNDDDFEPYLSPQARPNNAYTAMSDSYLPSYYSPSIGFSYSLGEAAWSTGGDTAMPYLTSYGQLSNGEPHFLPDAMFGQPGALGSTPFLGQHGFNFFPSGIDFSAWGNNSSQGQSTQSSGYSSNYAYAPSSLGGAMIDGQSAFANETLNKAPGMNTIDQGMAALKLGSTEVASNVPKVVGSAVGSGSITSNIVASNSLPPATIAPPKPASWADIASKPAKQQPKLKTKNGIAGSSLPPPPIKHNMDIGTWDNKGPVAKAPSQALVQNIGQPTQGSPQPVGQQANNSPPVAQASVGQQTQPLPPPPPQPAQLSVQQQAAQPTRWVAPRNRGSGFGHNGVDGNGVGQSQAGSGSTPSEPHPVLEKLRSINNYNPKDFDWNLKHGRVFIIKSYSEDDIHRSIKYNIWCSTEHGNKRLDAAYRSMNGKGPVYLLFSVNGSGHFCGVAEMKSAVDYNTCAGVWSQDKWKGRFDVRWIFVKDVPNSQLRHIRLENNENKPVTNSRDTQEVPLEKAKQVLKIIASYKHTTSIFDDFSHYEKRQEEEESVKKERQGRGK
Q: With B2 as the protein, how does the expression_or_secretion ([3]; glycan lost) read?
A: Its expression_or_secretion is “decreases”.

B3: YTHDF2: TMG (protein)
parent chain: MSASSLLEQRPKGQGNKVQNGSVHQKDGLNDDDFEPYLSPQARPNNAYTAMSDSYLPSYYSPSIGFSYSLGEAAWSTGGDTAMPYLTSYGQLSNGEPHFLPDAMFGQPGALGSTPFLGQHGFNFFPSGIDFSAWGNNSSQGQSTQSSGYSSNYAYAPSSLGGAMIDGQSAFANETLNKAPGMNTIDQGMAALKLGSTEVASNVPKVVGSAVGSGSITSNIVASNSLPPATIAPPKPASWADIASKPAKQQPKLKTKNGIAGSSLPPPPIKHNMDIGTWDNKGPVAKAPSQALVQNIGQPTQGSPQPVGQQANNSPPVAQASVGQQTQPLPPPPPQPAQLSVQQQAAQPTRWVAPRNRGSGFGHNGVDGNGVGQSQAGSGSTPSEPHPVLEKLRSINNYNPKDFDWNLKHGRVFIIKSYSEDDIHRSIKYNIWCSTEHGNKRLDAAYRSMNGKGPVYLLFSVNGSGHFCGVAEMKSAVDYNTCAGVWSQDKWKGRFDVRWIFVKDVPNSQLRHIRLENNENKPVTNSRDTQEVPLEKAKQVLKIIASYKHTTSIFDDFSHYEKRQEEEESVKKERQGRGK
Q: Which degradation_or_half_life [4] does the source give for B3 here?
A: The degradation_or_half_life was “increases”.

Q: What about the localisation_or_trafficking ([1]; glycan gained, control: untreated) of the same protein?
A: The localisation_or_trafficking was “no change”.

Q: And the expression_or_secretion ([3]; glycan gained)?
A: The expression_or_secretion was “increases”.

B4: YTHDF2: S263A (protein)
parent chain: MSASSLLEQRPKGQGNKVQNGSVHQKDGLNDDDFEPYLSPQARPNNAYTAMSDSYLPSYYSPSIGFSYSLGEAAWSTGGDTAMPYLTSYGQLSNGEPHFLPDAMFGQPGALGSTPFLGQHGFNFFPSGIDFSAWGNNSSQGQSTQSSGYSSNYAYAPSSLGGAMIDGQSAFANETLNKAPGMNTIDQGMAALKLGSTEVASNVPKVVGSAVGSGSITSNIVASNSLPPATIAPPKPASWADIASKPAKQQPKLKTKNGIAGSSLPPPPIKHNMDIGTWDNKGPVAKAPSQALVQNIGQPTQGSPQPVGQQANNSPPVAQASVGQQTQPLPPPPPQPAQLSVQQQAAQPTRWVAPRNRGSGFGHNGVDGNGVGQSQAGSGSTPSEPHPVLEKLRSINNYNPKDFDWNLKHGRVFIIKSYSEDDIHRSIKYNIWCSTEHGNKRLDAAYRSMNGKGPVYLLFSVNGSGHFCGVAEMKSAVDYNTCAGVWSQDKWKGRFDVRWIFVKDVPNSQLRHIRLENNENKPVTNSRDTQEVPLEKAKQVLKIIASYKHTTSIFDDFSHYEKRQEEEESVKKERQGRGK
Q: Which localisation_or_trafficking ([1]; glycan lost, control: YTHDF2-WT) does the source give for B4 here?
A: Its localisation_or_trafficking is “no change”.

Q: What about the “other: stabilisation of target mRNA” value [5] of the same protein?
A: Its value is “decreases”.

Q: And the “other: ubiquitination” value [6]?
A: The value was “increases”.

Q: And the “other: ubiquitination” value [7]?
A: Its value is “increases”.

Q: And the degradation_or_half_life [8]?
A: The degradation_or_half_life was “decreases”.

B5: YTHDF2: shOGT (protein)
parent chain: MSASSLLEQRPKGQGNKVQNGSVHQKDGLNDDDFEPYLSPQARPNNAYTAMSDSYLPSYYSPSIGFSYSLGEAAWSTGGDTAMPYLTSYGQLSNGEPHFLPDAMFGQPGALGSTPFLGQHGFNFFPSGIDFSAWGNNSSQGQSTQSSGYSSNYAYAPSSLGGAMIDGQSAFANETLNKAPGMNTIDQGMAALKLGSTEVASNVPKVVGSAVGSGSITSNIVASNSLPPATIAPPKPASWADIASKPAKQQPKLKTKNGIAGSSLPPPPIKHNMDIGTWDNKGPVAKAPSQALVQNIGQPTQGSPQPVGQQANNSPPVAQASVGQQTQPLPPPPPQPAQLSVQQQAAQPTRWVAPRNRGSGFGHNGVDGNGVGQSQAGSGSTPSEPHPVLEKLRSINNYNPKDFDWNLKHGRVFIIKSYSEDDIHRSIKYNIWCSTEHGNKRLDAAYRSMNGKGPVYLLFSVNGSGHFCGVAEMKSAVDYNTCAGVWSQDKWKGRFDVRWIFVKDVPNSQLRHIRLENNENKPVTNSRDTQEVPLEKAKQVLKIIASYKHTTSIFDDFSHYEKRQEEEESVKKERQGRGK
Q: For B5, which degradation_or_half_life [9] is on record?
A: The degradation_or_half_life was “decreases”.

Q: What about the “other: ubiquitination” value [2] of the same protein?
A: Its value is “increases”.

Q: And the degradation_or_half_life [10]?
A: The degradation_or_half_life was “decreases”.
